Source: PMC2710508, “A Peek into Tropomyosin Binding and Unfolding on the Actin Filament” (PLoS ONE, 2009)

B1: P2P3Shift tropomyosin (Y60A/L64A/L106A/A120L) (natural protein)
chain: MDAIKKKMQMLKLDKENALDRAEQAEADKKAAEDRSKQLEDELVSLQKKLKGTEDELDKASEAAKDAQEKLELAEKKATDAEADVASLNRRIQLVEEELDRAQERAATALQKLEEAEKALDESERGMKVIESRAQKDEEKMEIQEIQLKEAKHIAEDADRKYEEVARKLVIIESDLERAEERAELSEGKCAELEEELKTVTNNLKSLEAQAEKYSQKEDKYEEEIKVLSDKLKEAETRAEFAERSVTKLEKSIDDLEDELYAQKLKYKAISEELDHALNDMTSI
notes: striated muscle alpha-tropomyosin, rat, cDNA in pET11d, expressed with an unacetylated N-terminal Met; combines the P2Shift and P3Shift mutations; TnT 70-170 present in every actin experiment; source: E. coli BL21 (DE3), purified (ammonium sulfate fractionation, DE52 cellulose, hydroxylapatite)
B2: tropomyosin P3Shift C190S/L113C, unlabeled (natural protein)
chain: not shown
notes: striated muscle alpha-tropomyosin, rat, cDNA in pET11d, expressed with an unacetylated N-terminal Met; Unlabeled form used for light scattering; source: E. coli BL21 (DE3), purified (ammonium sulfate fractionation, DE52 cellulose, hydroxylapatite)
B3: tropomyosin P2Shift C190S/L71C, unlabeled (natural protein)
chain: not shown
notes: as for B2

Tests used:
Settings in all cases: both partners purified
[1] = target: T1, F-actin from chicken pectoral skeletal muscle (chicken, UniProt P68139 1-377); experiment: co-sedimentation; tropomyosin 0.1–10 µM with 0.12–12 µM troponin T 70–170 (1.2× molar excess) and 5 µM F-actin, 20°C, 250 mM NaCl, 10 mM TrisHCl pH 7.5, 2 mM MgCl2, 0.5 mM DTT; pellets and supernatants by SDS-PAGE and densitometry; apparent constant (Kapp) and Hill coefficient from a fit to the Hill equation
[2] = target: T1, F-actin from chicken pectoral skeletal …; experiment: differential scanning calorimetry; tropomyosin 15 µM and TnT 70–170 18 µM with phalloidin (36 µM) stabilized F-actin (24 µM), 100 mM NaCl, 10 mM Hepes pH 7.0, 2 mM MgCl2, 1 mM DTT; three heating scans at 1°C/min; peak of unfolding/dissociation of actin-bound tropomyosin
[3] = target: T1, F-actin from chicken pectoral skeletal …; experiment: light scattering temperature scan; unlabeled tropomyosin 6 µM, TnT 70–170, phalloidin (27 µM) stabilized F-actin (18 µM), 100 mM NaCl, 10 mM sodium phosphate pH 7.5, 2 mM MgCl2, 1 mM DTT; 90° scattering at 245 nm, 20–65°C at 1°C/min; temperature of 50% decrease in scattering

Binder	Ka [1]	DSC TM of dissociation from F-actin (TM3) [2]	DSC ΔΔH (with minus without F-actin) [2]	light scattering TM (half maximal dissociation from F-actin) [3]
B1	1.83e+06 M⁻¹	44.4 °C	60.2 kJ/mol	
B2				41.9 °C
B3				40.7 °C
